The text below walks through data of patent US20230193225A1, “NEW USES OF A MUTATED LACTONASE, AND COMPOSITIONS” (FONDATION MEDITERRANEE INFECTION, priority 2019, published 2023).

The subject of test [1] is Pseudomonas aeruginosa UCBPP-PA14 biofilm. The test can be described thus: MBEC (Minimal Biofilm Eradication Concentration) assay. Particulars: for MBEC: P. aeruginosa UCBPP-PA14 biofilm; for factor of decrease of the concentration required to eliminate the biofilms in presence of SsoPox-W263I: P. aeruginosa biofilms, with vs without SsoPox-W263I. The format is cell-based. How it is done: (§1) The doses of antimicrobial agents required to eliminate bacterial biofilms are determined using the “MBEC (Minimal Biofilm Eradication Concentration) Assay TM” technique developed by Innovotech (Alberta, Canada) according to the supplier's data.
(§2) Bacterial biofilms are formed by bacterial growth in a medium and conditions adapted to the bacteria studied in the presence or absence of the lactonase SsoPox-W263I of sequence SEQ ID NO: 2.
(§3) Bacteria are pre-cultured for 6 hours in oxygenated flasks under the conditions indicated in Table 1 and then MBEC plates are plated by diluting the pre-culture to 1:1000 in the presence or absence of SsoPox-W263I lactonase at 0.5 mg/mL. After 24 hours of growth, the bacterial biofilms formed on the spikes of the MBEC plate cover are rinsed by immersion for 5 minutes in a buffer solution (Table 1). The biofilms are then immersed in a buffer solution containing antimicrobial agents (disinfectants, bactericidal or bacteriostatic antibiotics, bacteriophages, biocides) for a period of time representative of the mechanism of action of the antimicrobial agent studied (1.5 h for antiseptics, 3 h for antibiotics, 4 h for phages). After immersion in the antimicrobial agents, the bacterial biofilms were rinsed for 5 minutes in a buffer solution and then incubated for 1 hour in a nutrient medium adapted to the bacteria studied and containing detergents to detach the biofilms (Table 1). After 1 hour of incubation, the bacteria detached from the biofilm and thus present in the wells of the MBEC plate are serially diluted and plated on suitable nutrient agar to perform bacterial counts and determine the number of bacteria that survived the combined treatment of the mutated SsoPox-W263I enzyme and the antimicrobial agent (FIG. 1). The MBEC is the minimum concentration of antimicrobial agent to eradicate the bacteria in the biofilm.

For test [2] the test system is unchanged. Described as above. The format is cell-based. Particulars: control sample with inactive variant SsoPox-5A8.
Another test relates to P. aeruginosa biofilms. The test can be described thus: Enumeration of bacteria recovered from biofilms after antiseptic or bleach treatment. The format is cell-based, Pseudomonas aeruginosa. Particulars: for bacteria recovered from the biofilm: 10 mM H2O2 for 1.5 hours. How it is done:
as §2, §3

Test [3] has as its system Chromobacterium violaceum ATCC-12472 biofilm. The test can be described thus: MBEC (Minimal Biofilm Eradication Concentration) assay. The format is cell-based. Conditions: C. violaceum ATCC-12472 biofilm. How it is done: as §1, §2, §3
For test [4], the system named is CRISPR-Cas system genes in Chromobacterium violaceum CV12472. The test can be described thus: Gene expression of the CRISPR-Cas system (RT-PCR). The class given is cell-based. Conditions: C. violaceum CV12472; vs inactive SsoPox-5A8. How it is done:
(§4) FIG. 3: Expression changes of the CRISPR-Cas system. Expression of the CRISPR-Cas system genes casl, cas3, csy1, csy2, csy3 and csy4 was measured for the P. aeruginosa model strain PA14 as well as for clinical isolates from diabetic foot infections (All, B10, C5, C11, D10 and F3) and for the marine bacterium Chromobacterium violaceum CV12472. […] Error bars represent variations for 2 technical duplicates of 2 biological replicates. *p-values<0.05, *p-values<0.01, ***p-values<0.001 by Student's t-test.
(§5) After 16 hours of culture (stationary phase), the bacteria were recovered by centrifugation.
RNAs were extracted and purified with the PureLink® RNA mini kit (ThermoFisher) according to the supplier's recommendations and then treated with the TURBO DNA-free™ kit (ThermoFisher) to remove genomic DNA contamination. Samples were checked for quality by 1.5% agarose gel migration and the amount of nucleic acid was measured with a NanoDrop 2000 spectrophotometer (Thermo Scientific) at OD260 nm. […] RT-PCR was then performed using the LuminoCt® SYBR® Green qPCR ReadyMix™ kit and a CFX thermocycler (Bio-Rad) and specific primer pairs. […] Sample fluorescence is measured at the end of each cycle and denaturation curves were analysed with CFX Manager™ software (Bio-Rad). […]

Test [5] has as its system CRISPR-Cas system genes cas1, cas3, csy1, csy2, csy3 and csy4 in P. aeruginosa PA14 and clinical isolates. The test can be described thus: Gene expression of the CRISPR-Cas system (RT-PCR). The class given is cell-based, Pseudomonas aeruginosa. Particulars: vs inactive SsoPox-5A8. Here is the method: as §4, §5
RNAs were extracted and purified with the PureLink® RNA mini kit (ThermoFisher) according to the supplier's recommendations and then treated with the TURBO DNA-free™ kit (ThermoFisher) to remove genomic DNA contamination. Samples were checked for quality by 1.5% agarose gel migration and the amount of nucleic acid was measured with a NanoDrop 2000 spectrophotometer (Thermo Scientific) at OD260 nm. Complementary DNAs (cDNAs) were synthesised using the TaqMan® Reverse Transcription Reagents kit (ThermoFisher) according to the manufacturer's recommendations. RT-PCR was then performed using the LuminoCt® SYBR® Green qPCR ReadyMix™ kit and a CFX thermocycler (Bio-Rad) and specific primer pairs. PCR amplification was performed with the following method: Denaturation for 5 minutes at 94° C., followed by 29 cycles of [1 minute at 94° C., 1 minute at 55° C., 30 seconds at 72° C.] for amplification, then a final elongation step for 7 minutes at 72° C. Sample fluorescence is measured at the end of each cycle and denaturation curves were analysed with CFX Manager™ software (Bio-Rad). Gene expression was normalised by expression of a 5S RNA housekeeping gene.

The subject of test [6] is Pseudomonas aeruginosa PA14. The test can be described thus: Susceptibility to Intesti phage cocktail. The class given is cell-based. Particulars: enzyme 0.5 mg/mL, phage cocktail 0 to 50% (vol/vol). Here is the method:
FIG. 2: Increased susceptibility of Pseudomonas aeruginosa PA14 to Intesti phage cocktail.
as §3
The Intesti phage cocktail consists of a mixture of sterile filtrates of phages directed against Shigella flexneri (serovariants 1, 2, 3, 4, 6), Shigellasi, Proteus vulgaris, Proteus mirabilis, Enterococcus, Staphylococcus, Pseudomonas aeruginosa and excipients such as 8-hydroxyquinoline sulfate monohydrate at 0.0001 g/ml (estimated content) and is marketed by Intesti-bacteriophage, Microgen, Russia

“Also recorded” adds a separate entry of the source. Where only a bound is given, the exact number is not on record here.

Turning to `OO` [H2O2], the MBEC is on record as 10 mM in test [1] (with SsoPox W263I 0.5 mg/mL) and 100 mM in test [1] (without SsoPox W263I). Besides, in test [1], the “factor of decrease of the concentration required to eliminate the biofilms in presence of SsoPox-W263I” value (“factor of decrease … of SsoPox-W263I” below) was determined as 10. In test [2], the “antiseptic required to completely eradicate the biofilm” value stood at 100 mM. Moreover, the “bacteria recovered from the biofilm” value with P. aeruginosa biofilms (without the lactonase) was 104-105 bacterial cells.
`NC[C@H]1O[C@H](O[C@H]2[C@H](O)[C@@H](O[C@H]3O[C@H](CO)[C@@H](O)[C@H](N)[C@H]3O)[C@H](N)C[C@@H]2N)[C@H](N)C[C@@H]1O` [Tobramycin]: the MBEC in test [1] (with SsoPox W263I 0.5 mg/mL) is 1 µg/mL; in test [1] (without SsoPox W263I), 10 µg/mL. In addition, the “factor of decrease … of SsoPox-W263I” value in test [1] was 10.
Consider `CN(C)S(=O)(=O)N(SC(F)(Cl)Cl)c1ccccc1` [Preventol A4S, Dichlofluanide], for which the MBEC in test [3] (with SsoPox W263I 0.5 mg/mL) was over 10 µM; in test [3] (without SsoPox W263I) it was under 200 µM.
Consider Gentamicin, for which the MBEC in test [1] (with SsoPox W263I 0.5 mg/mL) was 2 µg/mL; in test [1] (without SsoPox W263I), 20 µg/mL. Moreover, the “factor of decrease … of SsoPox-W263I” value in test [1] was 10.

B1: SsoPox-W263I: mutated hyperthermophilic lactonase of Sulfolobus solfataricus (SsoPox), tryptophan at position 263 substituted by isoleucine, SEQ ID NO: 2 (protein, listed as Sulfolobus solfataricus)
chain: MRIPLVGKDSIESKDIGFTLIHEHLRVFSEAVRQQWPHLYNEDEEFRNAVNEVKRAMQFGVKTIVDPTVMGLGRDIRFMEKVVKATGINLVAGTGIYIYIDLPFYFLNRSIDEIADLFIHDIKEGIQGTLNKAGFVKIAADEPGITKDVEKVIRAAAIANKETKVPIITHSNAHNNTGLEQQRILTEEGVDPGKILIGHLGDTDNIDYIKKIADKGSFIGLDRYGLDLFLPVDKRNETTLRLIKDGYSDKIMISHDYCCTIDIGTAKPEYKPKLAPRWSITLIFEDTIPFLKRNGVNEEVIATIFKENPKKFFS
For B1, in test [4], the “expression of the cas3 and csy2-4 genes” value is on record as “significantly reduced”. In test [5] (P. aeruginosa PA14), the “expression of CRISPR-Cas genes” value was “completely abolished”. The “expression of the csy1-4 genes” value in test [5] (clinical isolate A11) and in test [5] (clinical isolate D10) was “significantly reduced” throughout. Moreover, the figures for the “factor of decrease of CRISPR-Cas gene expression” value in test [5] (clinical isolate B10) and in test [5] (clinical isolate C11) were 5.5 and 8, respectively. In test [5] (clinical isolate F3), the “factor of increase of CRISPR-Cas gene expression, on average” value came to 1.7. In addition, the results for the “sensitivity of bacteria to Intesti phage cocktail (number of bacteria counted)” value in test [6] and in test [6] (listed as W263I mutated lactonase) were “more sensitive” and “satisfactory results”, respectively. The “decrease in number of bacteria recovered from biofilms” value in the test on P. aeruginosa biofilms (0.7 mM NaOCl and SsoPox-W263I, compared to NaOCl alone) was 2 Log. The “bacteria recovered from the biofilm” value in the test with P. aeruginosa biofilms (biofilm formed with SsoPox-W263I) is given as “no bacteria are recovered; also recorded: significantly reduces”. Moreover, the “number of bacteria recovered from the biofilm, combination vs either agent alone” value in the test on P. aeruginosa biofilms (sodium hypochlorite in combination with W263I mutated lactonase) is “significantly reduces”. For the same molecule, the “number of bacteria recovered from biofilms” value is “same number of bacteria” in the test with P. aeruginosa biofilms (without NaOCl treatment, with vs without W263I mutated lactonase) and “same number of bacteria” in the test with P. aeruginosa biofilms (without antiseptic treatment, with vs without SsoPox-W263I).

B2: SsoPox-5A8: inactive variant of SsoPox (V27G/P67Q/L72C/Y97S/Y99A/T177D/R223L/L226Q/L228M/W263H) (protein, UniProt Q97VT7 1-314, looked up, variant V27G P67Q L72C Y97S Y99A T177D R223L L226Q L228M W263H)
Aryldialkylphosphatase: MRIPLVGKDSIESKDIGFTLIHEHLRGFSEAVRQQWPHLYNEDEEFRNAVNEVKRAMQFGVKTIVDQTVMGCGRDIRFMEKVVKATGINLVAGTGISIAIDLPFYFLNRSIDEIADLFIHDIKEGIQGTLNKAGFVKIAADEPGITKDVEKVIRAAAIANKETKVPIITHSNAHNNDGLEQQRILTEEGVDPGKILIGHLGDTDNIDYIKKIADKGSFIGLDLYGQDMFLPVDKRNETTLRLIKDGYSDKIMISHDYCCTIDHGTAKPEYKPKLAPRWSITLIFEDTIPFLKRNGVNEEVIATIFKENPKKFFS
Take B2: the “sensitivity of bacteria to Intesti phage cocktail (number of bacteria counted)” value in test [6] is given as “little impacted”.
